{"source": "patent US20140148355A1", "about": "(UNIVERSITY OF OSLO, published 2014)", "key": {"[1]": {"target": "T1, ASHH2 CW domain (13C/15N labelled, cleaved from GST with thrombin) (Arabidopsis thaliana, UniProt Q2LAE1 850-937, limits assumed, 13C and 15N isotope labelled; binds one Zn2+ through Cys868, 871, 893, 904)", "T1 construct": "domain: CW domain; Free CW domain used for NMR; The structure is deposited as PDB 2l7p (printed '217p')", "T1 sequence (looked up)": "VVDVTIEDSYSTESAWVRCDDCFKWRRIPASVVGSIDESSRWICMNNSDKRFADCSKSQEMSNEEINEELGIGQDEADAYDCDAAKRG", "test": "NMR, 15N-1H HSQC chemical shift changes, peptide:CW about 1.1:1"}, "[2]": {"target": "histone H3 dimethylated on lysine 4 in Arabidopsis seedling chromatin (nucleosomes) (Arabidopsis, UniProt P59226 2-136)", "test": "chromatin pull-down from Arabidopsis seedlings, quantified western blot"}, "[3]": {"target": "histone H3 monomethylated on lysine 4 in Arabidopsis seedling chromatin (nucleosomes) (Arabidopsis, UniProt P59226 2-136)", "test": "chromatin pull-down from Arabidopsis seedlings, quantified western blot"}, "[4]": {"target": "histone H3 trimethylated on lysine 4 in Arabidopsis seedling chromatin (nucleosomes) (Arabidopsis, UniProt P59226 2-136)", "test": "chromatin pull-down from Arabidopsis seedlings, quantified western blot"}}, "note": "Square brackets hold non-standard residues; d marks the D form. Ends that are not written are not given here. Lys(Me) = CNCCCC[C@H](N)C(=O)O"}
{"binder": "ART[Lys(Me)]QTARKSTGGKAY (Bought from CASLO and used for NMR at about 1.1:1 with the CW domain; also called histone H3K4me1 peptide (1-15); monomethylated H3K4 peptide)", "note": "[synthetic H3 peptide (residues 1-16) ARTK(me1)QTARKSTGGKAY]", "values": [{"measurement": "binding result", "setting": "[1]", "value": "binds"}]}
{"binder": "GST-ASHH2-CW (other, Arabidopsis thaliana, UniProt Q2LAE1 850-937, looked up, domain: CW domain; Expressed in bacteria from pSXG (Eco RI/Bam HI); also called GST-CWASHH2; GST-tagged ASHH2 CW protein; not shown: glutathione-S-transferase (GST) tag encoded by the pSXG vector) VVDVTIEDSYSTESAWVRCDDCFKWRRIPASVVGSIDESSRWICMNNSDKRFADCSKSQEMSNEEINEELGIGQDEADAYDCDAAKRG", "values": [{"measurement": "bound chromatin relative to input chromatin", "setting": "[2]", "value": "3.3 times of input material (2.5%)"}, {"measurement": "bound chromatin relative to input chromatin", "setting": "[3]", "value": "4.4 times of input material (2.5%)"}, {"measurement": "bound chromatin relative to input chromatin", "setting": "[4]", "value": "2.1 times of input material (2.5%)"}]}
